Assay results as given in paper PMC7531515.
One block for each binder: values may come before it.

Assays:
roledumab (human) [1] = assay: native MS
roledumab (human) [2] = assay: SEC + native MS
[3] = target: Fab fragment of roledumab (IgdE digestion) (human); assay: native MS
[4] = target: Fab fragment of roledumab (IgdE digestion) (human); assay: SEC + native MS
[5] = target: F(ab’)2 fragment of roledumab (IdeS digestion) (human); assay: native MS
[6] = target: F(ab’)2 fragment of roledumab (IdeS digestion) (human); assay: SEC + native MS

- relative abundance of dimer peak 2 (UV) (roledumab (human) [1]): 20%
- relative abundance of dimer peak 3 (UV) (roledumab (human) [1]): 13%
- relative abundance of dimer peak 4 (UV) (roledumab (human) [1]): 65%
- stoichiometry N (roledumab (human) [1]): 2
- relative abundance of dimer peak 1 (UV) (roledumab (human) [2]): 46%
- relative abundance of dimer peak 2 (UV) (roledumab (human) [2]): 32%
- relative abundance of dimer peak 3 (UV) (roledumab (human) [2]): 13%
- stoichiometry N (roledumab (human) [2]): 2
B1: roledumab (antibody, V domains shown)
VH: QVQLVESGGGVVQPGRSLRLSCTASGFTFKNYAMHWVRQAPAKGLEWVATISYDGRNIQYADSVKGRFTFSRDNSQDTLYLQLNSLRPEDTAVYYCARPVRSRWLQLGLEDAFHIWGQGTMVTVSS
VL: AIRMTQSPSSFSASTGDRVTITCRASQDIRNYVAWYQQKSGKAPKFLIYAASTLQSGVPSRFSGSGSGTDFTLTINSLQSEDFATYYCQQYYNSPPTFGQGTRVEIT
- percent HMW species in the isolated HMW fraction (SEC): 85% of HMW species (peak 2)

- relative abundance of Fab dimers (UV) [3]: 10%
- stoichiometry N [3]: 2
- stoichiometry N [4]: 2
B2: Fab fragment of roledumab (IgdE digestion) (Fab, V domains shown)
VH: B1 VH
VL: B1 VL

- relative abundance of F(ab’)2 dimer (UV) [5]: 54%
- stoichiometry N [5]: 2
- relative abundance of F(ab’)2 dimer peak 1 (UV) [6]: 32%
- relative abundance of F(ab’)2 dimer peak 2 (UV) [6]: 16%
- relative abundance of F(ab’)2 dimer peak 3 (UV) [6]: 8%
- stoichiometry N [6]: 2
B3: F(ab’)2 fragment of roledumab (IdeS digestion) (domain or fragment)
VH: B1 VH
VL: B1 VL
